Experimental data as given in patent US20220380463A1 (Adimab, published 2022).

T1: Cynomolgus CD3εδ Fc heterodimer (Cy CD3ε Fc / CD3δ Fc-HIS) (cynomolgus, UniProt Q95LI8 22-100)
T1 chain 1: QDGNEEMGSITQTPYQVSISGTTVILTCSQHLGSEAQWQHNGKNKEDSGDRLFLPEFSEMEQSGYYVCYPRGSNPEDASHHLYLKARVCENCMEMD
T1 chain 2: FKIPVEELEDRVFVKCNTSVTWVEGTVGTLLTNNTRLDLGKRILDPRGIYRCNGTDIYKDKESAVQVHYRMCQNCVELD


Legend:
[1] = target: T1, Cynomolgus CD3εδ Fc heterodimer (Cy …); test: BLI (Octet), IgG on AHC sensor, pH 7.4
[2] = target: T1, Cynomolgus CD3εδ Fc heterodimer (Cy …); test: BLI (Octet), IgG on AHC sensor, pH 6.0

| Binder | Kd [1] [nM] | koff [1] [s⁻¹] | kon [1] [M⁻¹ s⁻¹] | koff [2] [s⁻¹] |
| --- | --- | --- | --- | --- |
| SAD10320_P01_B03 (ADI-57354) (antibody, V domains shown, IgG; also called Ab61) VH: QVQLVQSGAEVKKPGASVKVSCKASGFNIKDYYMHWVRQAPGQRLEWMGWIDLENANTIYDAKFQGRVTITRDTSASTAYMELSSLRSDDTAVYYCARDQHGRYFYDVWGQGTLVTVSS VL: DIVMTQSPDSLAVSLGERATINCKSSQSLLNARTGKNYLAWYQQKPGQPPKLLIYWASTRESGVPDRFSGSGSGTDFTLTISSLQAEDVAVYYCKQSYSRRTFGGGTKVEIK | 75.1 | 0.0159 | 212000 | 0.0204 |
| LAD9953_P01_H01 (ADI-57437) (antibody, V domains shown, IgG; also called Ab167) VH: QVQLVQSGAEVKKPGASVKVSCKASGFNIKDYYMHWVRQAPGQRLEWMGWIDLENANTIYDAKFQGRVTITRDTSASTAYMELSSLRSEDTAVYYCARDAYGRYFYDVWGQGTLVTVSS VL: DIVMTQSPDSLAVSLGERATINCKSSQSLLHARTHKNYLAWYQQKPGQPPKLLIYWASTRESGVPDRFSGSGSGTDFTLTISSLQAEDVAVYYCKQSYSRRTFGGGTKVEIK | 86.7 | 0.0209 | 242000 | 0.0176 |
| LAD9955_P01_G02 (ADI-57439) (antibody, V domains shown, IgG; also called Ab170) VH: QVQLVQSGAEVKKPGASVKVSCKASGFNIKDYYMHWVRQAPGQRLEWMGWIDLENANTIYDAKFQGRVTITRDTSASTAYMELSSLRSEDTAVYYCARDAYGRYFYDVWGQGTLVTVSS VL: DIVMTQSPDSLAVSLGERATINCKSSQSLLHARTGKNHLAWYQQKPGQPPKLLIYWASTRESGVPDRFSGSGSGTDFTLTISSLQAEDVAVYYCKQSYSRRTFGGGTKVEIK | 127 | 0.0187 | 147000 | 0.0282 |
| LAD9964_P01_C07 (ADI-57444) (antibody, V domains shown) VH: QVQLVQSGAEVKKPGASVKVSCKASGFNIKDYYMHWVRQAPGQRLEWMGWIDLENANTIYDAKFQGRVTITRDTSASTAYMELSSLRSEDTAVYYCARDAYGRYFYDVWGQGTLVTVSS VL: DIVMTQSPDSLAVSLGERATINCKSSQSLLNARTHKNYLAWYQQKPGQPPKLLIYWASTRESGVPDRFSGSGSGTDFTLTISSLQAEDVAVYYCKQSYSRRTFGGGTKVEIK | 4.71 | 0.00146 | 310000 | 0.000637 |
| LAD9959_P01_E04 (ADI-57441) (antibody, V domains shown, IgG; also called Ab172) VH: QVQLVQSGAEVKKPGASVKVSCKASGFNIKDYYMHWVRQAPGQRLEWMGWIDLENANTIYDAKFQGRVTITRDTSASTAYMELSSLRSEDTAVYYCARDAYGRYFYDVWGQGTLVTVSS VL: DIVMTQSPDSLAVSLGERATINCKSSQSLLNARTHHNYLAWYQQKPGQPPKLLIYWASTRESGVPDRFSGSGSGTDFTLTISSLQAEDVAVYYCKQSYSRRTFGGGTKVEIK | 89.6 | 0.0189 | 210000 | 0.00174 |
| LAD9954_P01_B02 (ADI-57438) (antibody, V domains shown, IgG; also called Ab168) VH: QVQLVQSGAEVKKPGASVKVSCKASGFNIKDYYMHWVRQAPGQRLEWMGWIDLENANTIYDAKFQGRVTITRDTSASTAYMELSSLRSEDTAVYYCARDAYGRYFYDVWGQGTLVTVSS VL: DIVMTQSPDSLAVSLGERATINCKSSQSLLHARTGHNYLAWYQQKPGQPPKLLIYWASTRESGVPDRFSGSGSGTDFTLTISSLQAEDVAVYYCKQSYSRRTFGGGTKVEIK | 33.9 | 0.0107 | 316000 | 0.0303 |
| SAD10320_P02_G06 (ADI-57371) (antibody, V domains shown, IgG; also called Ab88) VH: QVQLVQSGAEVKKPGASVKVSCKASGFNIKDYYMHWVRQAPGQRLDWMGWIDLENANTIYDAKFQGRVTITRDTSASTAYMELSSLRSEDTAVYYCARDAYGRHFYDVWGQGTLVTVSS VL: DIVMTQSPDSLAVSLGERATINCKSSQSLLNARTRTNYLAWYQQKPGQPPKLLIYWASTRESGVPDRFSGSGSGTDFTLTISSLQAEDVAVYYCKQSYSRRTFGGGTKVEIK | 64.8 | 0.0219 | 338000 | 0.00387 |
| SAD10320_P02_F06 (ADI-57370) (antibody, V domains shown, IgG; also called Ab87) VH: QVQLVQSGAEVKKPGASVKVSCKASGFNIKDYYMHWVRQAPGQRLAWMGWIDLENANTIYDAKFQGRVTITRDTSASTAYMELSSLRSEDTAVYYCARDAYGRFHYDVWGQGTLVTVSS VL: DIVMTQSPDSLAVSLGERATINCKSSQSLLNARPGKNYLAWYQQKPGQPPKLLIYWASTRESGVPDRFSGSGSGTDFTLTISSLQAEDVAVYYCKQSYSRRTFGGGTKVEIK | 141 | 0.0166 | 118000 | 0.017 |
